pKd: −log10 of the molar value.
Target: recombinant EGFR-Fc (AcroBiosystems) (human) (UniProt P00533)
Assay: BLI (Octet QK), biotinylated binder on streptavidin sensor, EGFR-Fc 0-100 nM, 1:1 global fit

A pKd of 8.49 was found for “AFF.EGFR (Z domain-based EGFR-binding affibody ZEGFR:1907) (designed binder)” in this work.
